US20120053125A1

Key:
[1] = target: Protein Phosphatase-1 (PP1), purified catalytic subunit (New England BioLabs) (UniProt P62139); assay: cell-based or functional assay
[2] = target: endogenous type-1 protein phosphatase (PP1) of adult rat cardiomyocyte lysates (rat); assay: cell-based or functional assay

Sequence of Protein Phosphatase-1 (PP1), purified catalytic subunit (New England BioLabs) (P62139 whole entry): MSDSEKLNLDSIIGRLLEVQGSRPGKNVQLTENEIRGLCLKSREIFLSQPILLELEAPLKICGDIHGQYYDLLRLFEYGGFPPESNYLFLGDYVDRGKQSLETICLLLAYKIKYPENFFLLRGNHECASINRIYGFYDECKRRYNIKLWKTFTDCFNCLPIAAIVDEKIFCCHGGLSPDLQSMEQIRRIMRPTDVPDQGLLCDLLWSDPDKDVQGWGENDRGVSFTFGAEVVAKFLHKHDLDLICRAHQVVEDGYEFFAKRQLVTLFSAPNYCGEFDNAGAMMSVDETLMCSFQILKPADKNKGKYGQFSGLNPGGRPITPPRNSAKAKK

Binder | IC50 of inhibition of PP1 activity (dephosphorylation of 32P-MyBP) [1] [nM] | increase of purified PP1c activity compared to I-1 wild-type [1] [%] | PP1 activity remaining after PKA stimulation in infected rat cardiomyocytes [2] [fold] | other results
PKA-phosphorylated human I-1 wild type (protein, phosphothreonine at Thr-35 (phosphorylated in vitro by PKA)) MEQDNSPRKIQFTVPLLEPHLDPEAAEQIRRRRPTPATLVLTSDQSSPEIDEDRIPNPHLKSTLAMSPRQRKKMTRITPTMKELQMMVEHHLGQQQQGEEPEGAAESTGTQESRPPGIPDTEVESRLGTSGTAKKTAECIPKTHERGSKEPSTKEPSTHIPPLDSKGANSV | 3.2 |  |  | 
human I-1 (T75D) (protein) MEQDNSPRKIQFTVPLLEPHLDPEAAEQIRRRRPTPATLVLTSDQSSPEIDEDRIPNPHLKSTLAMSPRQRKKMDRITPTMKELQMMVEHHLGQQQQGEEPEGAAESTGTQESRPPGIPDTEVESRLGTSGTAKKTAECIPKTHERGSKEPSTKEPSTHIPPLDSKGANSV |  | 23 | 2 | increase in type-1 phosphatase activity in infected rat cardiomyocyte lysates compared to Ad.I-1WT and Ad.GFP [2]: 27%
human I-1 (S67A) phosphorylated by PKC-α (protein, phosphothreonine at Thr-75 (phosphorylated in vitro by PKC-α; 0.35 mol Pi/mol protein)) MEQDNSPRKIQFTVPLLEPHLDPEAAEQIRRRRPTPATLVLTSDQSSPEIDEDRIPNPHLKSTLAMAPRQRKKMTRITPTMKELQMMVEHHLGQQQQGEEPEGAAESTGTQESRPPGIPDTEVESRLGTSGTAKKTAECIPKTHERGSKEPSTKEPSTHIPPLDSKGANSV |  | 25 |  | 
human I-1 wild type phosphorylated first by PKC-α and then by PKA (protein, phosphothreonine at Thr-35 (PKA); phosphoserine at Ser-67 and phosphothreonine at Thr-75 (PKC-α)) MEQDNSPRKIQFTVPLLEPHLDPEAAEQIRRRRPTPATLVLTSDQSSPEIDEDRIPNPHLKSTLAMSPRQRKKMTRITPTMKELQMMVEHHLGQQQQGEEPEGAAESTGTQESRPPGIPDTEVESRLGTSGTAKKTAECIPKTHERGSKEPSTKEPSTHIPPLDSKGANSV | 4.9 |  |  | 
human I-1 (S67D) (protein) MEQDNSPRKIQFTVPLLEPHLDPEAAEQIRRRRPTPATLVLTSDQSSPEIDEDRIPNPHLKSTLAMDPRQRKKMTRITPTMKELQMMVEHHLGQQQQGEEPEGAAESTGTQESRPPGIPDTEVESRLGTSGTAKKTAECIPKTHERGSKEPSTKEPSTHIPPLDSKGANSV |  |  | 2 | 
human I-1 (S67D/T75D) (protein) MEQDNSPRKIQFTVPLLEPHLDPEAAEQIRRRRPTPATLVLTSDQSSPEIDEDRIPNPHLKSTLAMDPRQRKKMDRITPTMKELQMMVEHHLGQQQQGEEPEGAAESTGTQESRPPGIPDTEVESRLGTSGTAKKTAECIPKTHERGSKEPSTKEPSTHIPPLDSKGANSV |  |  | 2 | 
